Measured values from publication PMC9059122.

What was measured:
[1] = molecular target: human melanocortin-1 receptor (human) (UniProt Q01726)
[2] = molecular target: human melanocortin-3 receptor (human) (UniProt P41968)
[3] = molecular target: human melanocortin-5 receptor (human) (UniProt P33032)
Sequence of human melanocortin-5 receptor (human) (P33032 whole entry): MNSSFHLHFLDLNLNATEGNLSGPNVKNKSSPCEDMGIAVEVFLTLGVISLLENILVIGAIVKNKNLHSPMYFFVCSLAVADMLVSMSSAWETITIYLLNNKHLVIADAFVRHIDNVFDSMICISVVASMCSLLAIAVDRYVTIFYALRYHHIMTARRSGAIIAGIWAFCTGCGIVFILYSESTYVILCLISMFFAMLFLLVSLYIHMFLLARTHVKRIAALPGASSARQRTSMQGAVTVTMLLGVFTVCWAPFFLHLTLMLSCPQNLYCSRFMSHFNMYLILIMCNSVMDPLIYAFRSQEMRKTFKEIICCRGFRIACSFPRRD

Sequence of human melanocortin-1 receptor (human) (Q01726 whole entry): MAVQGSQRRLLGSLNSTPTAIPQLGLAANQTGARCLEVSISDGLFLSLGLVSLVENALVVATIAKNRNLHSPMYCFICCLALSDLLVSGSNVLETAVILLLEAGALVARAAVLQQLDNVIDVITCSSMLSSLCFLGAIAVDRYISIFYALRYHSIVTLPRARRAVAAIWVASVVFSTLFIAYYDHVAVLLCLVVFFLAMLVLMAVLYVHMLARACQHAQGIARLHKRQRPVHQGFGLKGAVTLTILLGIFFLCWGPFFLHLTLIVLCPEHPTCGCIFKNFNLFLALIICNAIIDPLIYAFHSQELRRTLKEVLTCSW
Sequence of human melanocortin-3 receptor (human) (P41968 whole entry): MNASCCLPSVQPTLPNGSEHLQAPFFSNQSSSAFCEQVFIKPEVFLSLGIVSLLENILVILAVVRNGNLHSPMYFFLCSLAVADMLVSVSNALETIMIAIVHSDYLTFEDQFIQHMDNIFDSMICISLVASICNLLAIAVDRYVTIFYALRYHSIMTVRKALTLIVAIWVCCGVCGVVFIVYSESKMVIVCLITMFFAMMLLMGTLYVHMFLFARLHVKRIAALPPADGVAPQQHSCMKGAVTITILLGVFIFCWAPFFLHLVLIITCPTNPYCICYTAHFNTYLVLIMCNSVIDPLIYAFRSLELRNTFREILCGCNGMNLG

Row | Substance | agonist potency (EC50), cAMP split-luciferase sensor dynamic assay [1] [nM] | agonist potency (EC50), cAMP split-luciferase sensor dynamic assay [2] [nM] | agonist potency (EC50), cAMP split-luciferase sensor dynamic assay [3] [nM]
1 | analogue 11 (Tyr-Val-Nle-Gly-His-D-Nal(2′)-Arg-Trp-Asp-Arg-Phe-Gly-NH2) (peptide) | 0.16 | 6.2 | 3.8
2 | analogue 13 (Tyr-Val-Nle-Gly-Pro-D-Nal(2′)-Arg-Trp-Asp-Arg-Phe-Gly-NH2) (peptide) | 1.2 |  | 4.1
